# T1: human CTLA-4 (human, UniProt P16410 36-223)
# T1 construct: whole, on cells; also called CTLA-4 antigen; cytotoxic T lymphocyte-associated antigen 4
# T1 sequence (looked up): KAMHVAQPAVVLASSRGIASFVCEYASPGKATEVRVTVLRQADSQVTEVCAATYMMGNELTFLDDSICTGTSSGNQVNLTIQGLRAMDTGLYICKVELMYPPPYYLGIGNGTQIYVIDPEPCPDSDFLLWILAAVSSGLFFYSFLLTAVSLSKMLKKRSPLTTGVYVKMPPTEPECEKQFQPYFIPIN
# Target: T1, human CTLA-4
# Experiment: flow cytometry on CHO-K1 cells expressing CTLA-4
# Description: For the constructed series of bispecific antibodies, the affinity of these samples with antigens was measured by using a flow cytometer. […] Then, an antibody-antigen binding curve was generated based on the geometric mean, raw data of four parameters was plotted by using the […] Prism V6.02 software, and a best fitted value program was compiled to analyze EC₅₀.
row,binding result,Binder
1,binds,"bispecific antibody CTLA4-G9-LN (bispecific antibody, human IgG4 S228P, kappa, also called L2 + H0) light: EVQLVESGGGLVQPGGSLRLSCAASGYTYSRHCLGWFRQAPGKGREAVSTIDSDGSTSYADSVKGRFTISRDNAKNTLYLQMNSLRPEDTAVYYCAIGPNPRYCSGAPNTRGAEHYFGYWGQGTLVTVSSGGGGSGGGSEIVLTQSPATLSLSPGERATLSCRASENVGTYISWYQQKPGQAPRLLIYGASNRYTGIPARFSGSGSGTDFTLTISSLEPEDFAVYYCGESYGHLYTFGGGTKVEIKRTVAAPSVFIFPPSDEQLKSGTASVVCLLNNFYPREAKVQWKVDNALQSGNSQESVTEQDSKDSTYSLSSTLTLSKADYEKHKVYACEVTHQGLSSPVTKSFNRGEC heavy: not shown"
2,binds,"bispecific antibody CTLA4-E-HN (bispecific antibody, human IgG4 S228P, kappa, also called H2 + L0) heavy: not shown light: EIVLTQSPATLSLSPGERATLSCRASENVGTYISWYQQKPGQAPRLLIYGASNRYTGIPARFSGSGSGTDFTLTISSLEPEDFAVYYCGESYGHLYTFGGGTKVEIKRTVAAPSVFIFPPSDEQLKSGTASVVCLLNNFYPREAKVQWKVDNALQSGNSQESVTEQDSKDSTYSLSSTLTLSKADYEKHKVYACEVTHQGLSSPVTKSFNRGEC"
3,binds,"bispecific antibody CTLA4-G15-HC (bispecific antibody, human IgG4 S228P, kappa, also called H3 + L0) heavy: not shown light: EIVLTQSPATLSLSPGERATLSCRASENVGTYISWYQQKPGQAPRLLIYGASNRYTGIPARFSGSGSGTDFTLTISSLEPEDFAVYYCGESYGHLYTFGGGTKVEIKRTVAAPSVFIFPPSDEQLKSGTASVVCLLNNFYPREAKVQWKVDNALQSGNSQESVTEQDSKDSTYSLSSTLTLSKADYEKHKVYACEVTHQGLSSPVTKSFNRGEC"
4,binds,"bispecific antibody CTLA4-E-HC (bispecific antibody, human IgG4 S228P, kappa, also called H1 + L0) heavy: not shown light: EIVLTQSPATLSLSPGERATLSCRASENVGTYISWYQQKPGQAPRLLIYGASNRYTGIPARFSGSGSGTDFTLTISSLEPEDFAVYYCGESYGHLYTFGGGTKVEIKRTVAAPSVFIFPPSDEQLKSGTASVVCLLNNFYPREAKVQWKVDNALQSGNSQESVTEQDSKDSTYSLSSTLTLSKADYEKHKVYACEVTHQGLSSPVTKSFNRGEC"
5,binds,"bispecific antibody CTLA4-G15-HN (bispecific antibody, human IgG4 S228P, kappa, also called H4 + L0) heavy: not shown light: EIVLTQSPATLSLSPGERATLSCRASENVGTYISWYQQKPGQAPRLLIYGASNRYTGIPARFSGSGSGTDFTLTISSLEPEDFAVYYCGESYGHLYTFGGGTKVEIKRTVAAPSVFIFPPSDEQLKSGTASVVCLLNNFYPREAKVQWKVDNALQSGNSQESVTEQDSKDSTYSLSSTLTLSKADYEKHKVYACEVTHQGLSSPVTKSFNRGEC"
6,binds,"bispecific antibody CTLA4-G15-LN (bispecific antibody, human IgG4 S228P, kappa, also called L1 + H0) light: EVQLVESGGGLVQPGGSLRLSCAASGYTYSRHCLGWFRQAPGKGREAVSTIDSDGSTSYADSVKGRFTISRDNAKNTLYLQMNSLRPEDTAVYYCAIGPNPRYCSGAPNTRGAEHYFGYWGQGTLVTVSSGGGGSGGGGSGGGGSEIVLTQSPATLSLSPGERATLSCRASENVGTYISWYQQKPGQAPRLLIYGASNRYTGIPARFSGSGSGTDFTLTISSLEPEDFAVYYCGESYGHLYTFGGGTKVEIKRTVAAPSVFIFPPSDEQLKSGTASVVCLLNNFYPREAKVQWKVDNALQSGNSQESVTEQDSKDSTYSLSSTLTLSKADYEKHKVYACEVTHQGLSSPVTKSFNRGEC heavy: not shown"
